According to patent US9279017B2:

What was measured:
[1] = target: recombinant human GM-CSF (rhGM-CSF) (human) (UniProt P04141); experiment: SPR (BIAcore), rhGM-CSF immobilised, analyte 1040 nM
[2] = target: recombinant human GM-CSF (rhGM-CSF) (human) (UniProt P04141); experiment: SPR (BIAcore), rhGM-CSF immobilised, analyte 116 nM
[3] = target: recombinant human GM-CSF (rhGM-CSF) (human) (UniProt P04141); experiment: SPR (BIAcore), rhGM-CSF immobilised, analyte 38.5 nM
[4] = target: recombinant human GM-CSF (rhGM-CSF) (human) (UniProt P04141); experiment: SPR (BIAcore), rhGM-CSF immobilised, analyte 3120 nM
[5] = target: recombinant human GM-CSF (rhGM-CSF) (human) (UniProt P04141); experiment: SPR (BIAcore), rhGM-CSF immobilised, analyte 347 nM
[6] = target: recombinant human GM-CSF (rhGM-CSF) (human) (UniProt P04141); experiment: SPR (BIAcore), rhGM-CSF immobilised, analyte 12.8 nM
[7] = target: recombinant human GM-CSF (rhGM-CSF) (human) (UniProt P04141)
[8] = target: recombinant human GM-CSF (rhGM-CSF) (human) (UniProt P04141); experiment: SPR (BIAcore), kinetic analysis, rhGM-CSF immobilised

Ka [1]: 1.89e+07 M⁻¹
Kd [1]: 52.8 nM
koff [1]: 0.0046 s⁻¹
kon [1]: 87100 M⁻¹ s⁻¹
Ka [2]: 1.66e+08 M⁻¹
Kd [2]: 6.01 nM
koff [2]: 0.00464 s⁻¹
kon [2]: 772000 M⁻¹ s⁻¹
Ka [3]: 2.2e+08 M⁻¹
Kd [3]: 4.55 nM
koff [3]: 0.00444 s⁻¹
kon [3]: 975000 M⁻¹ s⁻¹
Ka [4]: 1.06e+07 M⁻¹
Kd [4]: 94.6 nM
koff [4]: 0.00514 s⁻¹
kon [4]: 54300 M⁻¹ s⁻¹
Ka [5]: 9.22e+07 M⁻¹
Kd [5]: 10.8 nM
koff [5]: 0.00477 s⁻¹
kon [5]: 440000 M⁻¹ s⁻¹
Ka [6]: 3.25e+08 M⁻¹
Kd [6]: 3.07 nM
koff [6]: 0.00384 s⁻¹
kon [6]: 1.25e+06 M⁻¹ s⁻¹
inhibition of rhGM-CSF dependent proliferation of TF-1 cells [7]: 6 nM
Kd [8]: 50 nM
B1: half-human SCA B32oN-45 (scFv)
scFv: ELQLVEQSGAALVKPGDSVKMSCKASGYPFTDYIVHWVKQSHGKSLDWIGYINPYSGDTKFNEKFKSKATLTVDKSSSTAYMEFSRLTSEDSAIYYCARSGLIAVYFDYWGQGTTVTVSSGGGGSGGGGSGGGGSELVMTQSPSSVSASVGDRVTIACRASQNIRNILNWYQQRPGKAPQLLIYAASNLQSGVPSRFSGSGSGTDFTLTINSLQPEDFATYYCQQSYSMPRTFGGGTKVEIKTGDYKDDDDK
